Results on one molecule are retold here after US20230128688A1 (published 2023).

Assay [1] has as its target T1, CD20 (UniProt P11836 1-297, limits assumed).
T1 construct: Used in the Octet assay with Protein A biosensors
T1 sequence (looked up): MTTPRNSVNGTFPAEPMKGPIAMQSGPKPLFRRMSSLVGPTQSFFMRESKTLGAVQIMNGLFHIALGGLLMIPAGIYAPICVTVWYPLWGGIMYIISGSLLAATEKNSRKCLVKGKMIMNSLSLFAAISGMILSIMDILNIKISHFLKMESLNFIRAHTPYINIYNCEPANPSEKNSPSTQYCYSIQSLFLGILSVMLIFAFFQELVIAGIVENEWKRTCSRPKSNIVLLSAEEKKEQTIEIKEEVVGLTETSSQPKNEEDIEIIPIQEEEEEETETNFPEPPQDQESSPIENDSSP
The assay can be described thus: Octet bio-layer interferometry, Protein A biosensors, 1:1 global fit.

In assay [2] the target is T1, CD20. Briefly: Octet bio-layer interferometry, Protein A biosensors.

B1: III-1 (CD20×CD3; rituximab×SP34 scFv) (bispecific antibody)
chain 1: QVQLQQPGAELVKPGASVKMSCKASGYTFTSYNMHWVKQTPGRGLEWIGAIYPGNGDTSYNQKFKGKATLTADKSSSTAYMQLSSLTSEDSAVYYCARSTYYGGDWYFNVWGAGTTVTVSA
chain 2: QIVLSQSPAILSASPGEKVTMTCRASSSVSYIHWFQQKPGSSPKPWIYATSNLASGVPVRFSGSGSGTSYSLTISRVEAEDAATYYCQQWTSNPPTFGGGTKLEIK
chain 3: EVQLVESGGGLVQPGGSLKLSCAASGFTFNTYAMNWVRQAPGKGLEWVGRIRSKYNNYATYYADSVKGRFTISRDDSKNTLYLQMNSLRAEDTAVYYCVRHGNFGNSYVSWFAYWGQGTLVTVSSGGGGSGGGGSGGGGSQAVVTQEPSLTVSPGGTVTLTCGSSTGAVTTSNYANWVQQKPGQAPRGLIGGTNKRAPGVPARFSGSLLGGKAALTLSGAQPEDEAEYYCALWYSNLWVFGGGTKLTVLGSEQKLISEEDLGSGGGGSLPET
modifications: C-terminal LPETG sortase tag joined through the (G)5-PEG linker from I-53 to a lysine of rituximab
In the case of B1, the figures for the dissociation constant Kd in assay [1] and in assay [2] were 1.06 nM and 0.75 nM, respectively.
